From the DeepSol protein solubility set

test: soluble on expression in E. coli; label from the status in PepcDB or PDB records

Row | Sequence | soluble on expression in E. coli
1 | NTTHAYVHASPPHSVPIAGASTAAVTHQQATQLKGTDELYGLGNLPSSGPGRWEYLANPENWHPERRKLHEKLLDEARSSALTLAESLERDGCQPTLFALRGNTATGKTRIATKKIPALAAALEKTGGKGCINPDVFKSSLAKSEAGAKIFSSAQVHNESCFLADHFEDGLRSQRTGSGAIASIVVDKRLARAYEIDSYIELAKETGRKVELCDIDAPLENSLTGVLQRKPEGEDPRPPYPVVSSGFVAVRSNRMSVIDRFIADPSLGNYRLFGTAEDGKKVMVASVMGGELSVEDADLYEKITSPQSSVTGDLADKIIDNELIDRLTNNIDDPERAANTRAALEKYNGKSWSAALAAHSELI | not soluble
2 | NVVLKDASELLDEVVVIGYGAVKKSDLTSSISTVKGKEITETVTGNAMDALQGKINGVQVTSGGGPGAQPKVLIRGVTTVNGTDPLYVVDGMPVGTNINFLNSNDIESMEVLKDASAAAIYGTRASNGVILITTKKGMAGK | not soluble
3 | PAKRAFSNADQFVETMLPLAKEAAARIGVDPVMLVAQAALETGWGKSIMRQQDGSSSHNLFGIKAAGSWKGAEARAITSEFRDGKMVKETADFRSYDSYADSFHDLVSLLQNNNRYKDVVNSADKPEQFVKELQKAGYATDPAYASKISQIAKQMKS | not soluble
4 | PATDASVLLVQLSDSHLFAEDGARLLGMDTAHSLEKVVERVAREQPRIDLILATGDVSQDGSLDSYTRFRRLSAPLDAPLRWFAGNHDEREPMQRATEGSDLLEQVVDVGNWRVVLLDSSIPGAVPGYLEEDQLELLRRAIDSAGERFLLVSFHHHPVPIGSDWMDPIGLRNPQALFDLLAPYPQVRCLLWGHIHQEFDRQRGPLRLLASPSTCVQFAPGSSDFTLDRLAPGYRWLRLHDDGRLETGISRVDDVVF | not soluble
5 | PDVSVQEMVSAYTTFVNKGIRVNPLPITRIEDQYGNVVAQFSPNMVEVLPPDAAYKMLYMLKSVVDGGTGSRLRYRYGFKLDMGGKTGTTQNNSD | not soluble
6 | PEHIRQMAQAVEGVTPRALPDLPVACRLSGLEPLTIEKETLFINVGERTNVTGSARFKRLIKEEQYDEALEVARQQVENGAQIIDINMDEGMLDAQACMVRFLNLCASEPEISKVPIMVDSSKWEVIEAGLKCIQGKGIVNSISLKEGKEKFVEQAKLIRRYGAAVIVMAFDEVGQAETRTRKLEICTNAYRILVDEVGFPPEDIIFDPNIFAVATGIDEHNNYAVDFIEAVADIKRDLPHAMISGGVSNVSFSFRGNNYVREAIHAVFLYHCFKNGMDMGIVNAGQLEIYDNVPEKLREAVEDVVLNRRDDATERLLDIAAEYADKGVGKEEDASAL | not soluble
7 | PEIAEVVIGVGENAVKIGGEEVLHRHELTFFNPTGFFYDVWDTMDDKALEERCDRVVSYKKFYVGNFLTLDGFAVRCTSGDPKRYREVVKKVASYGKPLILVALDSECMKAALEEVADQRPLMYAATEGNWKEFLKLALEYKVPVTLRAKDLDLLKSMAVTFKQAGVKDIVLDPVTEPLGEGLKGTFERVIQLRRTAIAGQDKDVAYPIMITPIAAWLIEGDDVTKSYWEAVIASIFIVKYGDVMIFRSIDQHVVMPTITLRFNIYTDPRTPVQVEPGLRAINDPGPDDPVFITTNFALTYYTVESDLTSGGIKGWLLVLNTEGLGVEVSVAGGQFTASKVKELIEETKIEEKVNHRYLVIPGLAARLQGAIEDETGWKVLVGPMDSGRIKGWLEKNWP | not soluble
8 | PGSEFELGNKGNNILNSNESRLNVNENNILREKFENYARIVFQFNNSRQANGNFDIANEFISILSSANGTRNAQLLESWKILESMKSKDINIVEVGKQYLEQQFLQYTDNLYKKNMNEGLATNVNKIKSFIDTKLKKADKSWKISNLTVINGVPIWALIFYLLRAGLIKEALQVLVENKANIKKVEQSFLTYFKAYASSKDHGLPVEYSTKLHTEYNQHIKSSLDGDPYRLAVYKLIGRCDLSRKNIPAVTLSIEDWLWMHLMLIKEKDAENDPVYERYSLEDFQNIIISYGPSRFSNYYLQTLLLSGLYGLAIDYTYTFSEMDAVHLAIGLASLKLFKIDSSTRLTKKPKRDIRFANILANYTKSFRYSDPRVAVEYLVLITLNEGPTDVELCHEALRELVLETKEFTVLLGKIGRDGARIPGVIEERQPLLHVRDEKEFLHTITEQAARRADEDGRIYDSILLYQLAEEYDIVITLVNSLLSDTLSASDLDQPLVGPDDNSETNPVLLARRMASIYFDNAGISRQIHVKNKEICMLLLNISSIRELYFNKQWQETLSQMELLDLLPFSDELSARKKAQDFSNLDDNIVKNIPNLLIITLSCISNMIHILNESKYQSSTKGQQIDSLKNVARQCMIYAGMIQYRMPRETYSTLINIDVSL | soluble
9 | PISFGLSVRKSLAKGFSVETGLTYTLLSSDAKFADSDQKTEQKLHYLGIPLKANWNFLDKKLFTLYVSGGGMIEKCVYGKLGTEKETVKPLQFSVSGAVGAQFNATKRVGIYVEPGVAYFFDDGSDVQTIRKENPFNFNIQAGIRLTY | not soluble
10 | PKALIVYGSTTGNTEYTAETIARELADAGYEVDSRDAASVEAGGLFEGFDLVLLGCSTWNDDSIELQDDFIPLFDSLEETGAQGRKVACFGCGDSSYEYFCGAVDAIEEKLKNLGAEIVQDGLRIDGDPRAARDDIVGWAHDVRGAI | soluble
11 | PKTQRGIYHNLKESEYVASNTDVTFFFSSELYLNKFLDGYQEYRKKFNKKIERVAVTPWNMDMLADITFYSEVEKRGFHAWLKGDNATWREVHVYALRIMTKPNTLDWSRIQKPRLRERRKSM | soluble
12 | PKWQAVRAEYQRQRDPLHQFASQQNPEAQLQALQDKIRANPQNSEQWALLGEYYLWQNDYSNSLLAYRQALQLRGENAELYAALATVLYYQASQHMTAQTRAMIDKALALDSNEITALMLLASDAFMQANYAQAIELWQKVMDLNSPRINRTQLVESINMAKLLQRRSDLEHHHHHH | soluble
13 | PLAIVTSPEIKSPGDLKGKRLMLSEVNIDSANFTHMLQGFGLSMKDIQILSTSFNIHDFIDGKVDAYSIFLTNELFDLQRLGVRYNILDPSNYGVELYDENLFGAKEFVLKNPTLVKRFIDASNRGWQYALDHPEEIVDLILERYNTQ | not soluble
14 | PLGSEEEEEDAGLVAEAEAVAAGWMLDFLCLSLCRAFRDGRSEDFRRTRNSAEAIIHGLSSLTACQLRTIYICQFLTRIAAGKTLDAQFENDERITPLESALMIWGSIEKEHDKLHEEIQNLIKIQAIAVCMENGNFKEAEEVFERIFGDPNSHMPFKSKLLMIISQKDTFHSFFQHFSYNHMMEKIKSYVNYVLSEKSSTFLMKAAAKVVESKR | soluble
15 | PPCDSIVVAYYFCGEPIPYETLVRGRAVTLGQFKELLTKKGSYRYYFKKVSDEFDCGVVFEEVREDEAILPVFEEKIIGKVEKVD | soluble
16 | PQPSRPRKGSLGFGPRKRSTSETPRFNSWPSDDGQPGVQGFAGYKAGMTHVVLVNDEPNSPREGMEETVPVTVIETPPMRAVALRAYEDTPYGQRPLTEVWTDEFHSELDRTLDVPEDHDPDAAEEQIRDAHEAGDLGDLRLITHTVPDAVPSVPKKKPDVMETRVGGGSVSDRLDHALDIVEDGGEHAMNDIFRAGEYADVAGVTKGKGTQGPVKRWGVQKRKGKHARQGWRRRIGNLGPWNPSRVRSTVPQQGQTGYHQRTELNKRLIDIGEGDEPTVDGGFVNYGEVDGPYTLVKGSVPGPDKRLVRFRPAVRPNDQPRLDPEVRYVSNESNQG | soluble
